Laboratory results: patent US20210403594A1 (IMMUNOGEN, published 2021)

Tests used:
[1] = molecular target: cynomolgus EpCAM (cynomolgus monkey); test: flow cytometry on cyno kidney epithelial cells; Geo Mean FL1 against concentration; Alexa Fluor Plus 488 goat anti-mouse IgG (Example 2)
human EpCAM (CD326) = molecular target: T1, human EpCAM (CD326) (human, UniProt P16422 24-314); test: flow cytometry on HSC2 cells; Geo Mean FL1 against concentration; Alexa Fluor Plus 488 goat anti-mouse IgG (Example 2)
T1 construct: whole, on cells; Antigen on the surface of the human cells used in flow cytometry and cytotoxicity assays; also called EpCAM on HSC2 cells; human-EpCAM expressing 300-19 cells
T1 sequence (looked up): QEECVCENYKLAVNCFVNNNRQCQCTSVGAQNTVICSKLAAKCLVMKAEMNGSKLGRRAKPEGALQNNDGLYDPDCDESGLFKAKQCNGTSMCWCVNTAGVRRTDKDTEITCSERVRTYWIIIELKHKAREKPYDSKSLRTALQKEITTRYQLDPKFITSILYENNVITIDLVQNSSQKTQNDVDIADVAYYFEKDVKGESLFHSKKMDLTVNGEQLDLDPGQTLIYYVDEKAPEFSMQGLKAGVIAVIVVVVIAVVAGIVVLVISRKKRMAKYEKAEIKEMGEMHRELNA

cynomolgus EpCAM (cynomolgus monkey), sequence (Q1WER1 24-314): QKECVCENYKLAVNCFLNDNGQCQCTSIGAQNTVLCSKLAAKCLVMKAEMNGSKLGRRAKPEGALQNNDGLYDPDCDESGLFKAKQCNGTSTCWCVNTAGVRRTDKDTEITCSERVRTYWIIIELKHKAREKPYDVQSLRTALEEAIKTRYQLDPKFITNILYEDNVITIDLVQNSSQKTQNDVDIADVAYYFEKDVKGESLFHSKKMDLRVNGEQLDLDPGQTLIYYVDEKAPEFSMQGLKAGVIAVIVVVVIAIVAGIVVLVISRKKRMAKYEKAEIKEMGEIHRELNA

- Kd [1]: 0.79 nM
- Kd (human EpCAM (CD326)): 0.38 nM
B1: mEpCAM23 (antibody, mouse IgG2b, kappa)
heavy: EVKLEESGPALVKPGASVRISCKASGYTFTNYYIHWVKQRPGQGLDYIGWIYPGNVYIQYNEKFKGKATLTADKSSSTAFMQLSSLTSEDSAVYFCARDGPWFAYWGQGTLVTVSSAKTTPPSVYPLAPGCGDTTGSSVTLGCLVKGYFPESVTVTWNSGSLSSSVHTFPALLQSGLYTMSSSVTVPSSTWPSQTVTCSVAHPASSTTVDKKLEPSGPISTINPCPPCKECHKCPAPNLEGGPSVFIFPPNIKDVLMISLTPKVTCVVVDVSEDDPDVRISWFVNNVEVHTAQTQTHREDYNSTIRVVSALPIQHQDWMSGKEFKCKVNNKDLPSPIERTISKIKGLVRAPQVYILPPPAEQLSRKDVSLTCLVVGFNPGDISVEWTSNGHTEENYKDTAPVLDSDGSYFIYSKLDIKTSKWEKTDSFSCNVRHEGLKNYYLKKTISRSPGK
light: DIVLTQTPFSNPVTLGTSASISCRSSKSLLHSDGFTYLYWFLQKPGQSPHLLIYQTSNLASGVPDRFSSSGSGTDFTLRISRVEAEDVGVYYCAQNLELPNTFGGGTKLEIKRADAAPTVSIFPPSSEQLTSGGASVVCFLNNFYPKDINVKWKIDGSERQNGVLNSWTDQDSKDSTYSMSSTLTLTKDEYERHNSYTCEATHKTSTSPIVKSFNRNEC
notes: also called muEpCAM-23; muEpCAM23
